This is an account of results in patent US20080131510.

The subject of series [1] is Lys*-Ala-Gly-Leu-Leu-Cys (SEQ ID NO:32).
For series [2], the system named is Lys*-Gly-Leu-Cys (SEQ ID NO:33).
Series [3] deals with Lys*-Pro-Ala-Gly-Leu-Leu-Gly-Cys (SEQ ID NO:2), pendant in PEG(8000)DA hydrogel and complexed with Pt.
Series [4] concerns Lys*-Pro-Ala-Gly-Leu-Leu-Gly-Cys (SEQ ID NO:2).
Series [5] has as its system Lys*-Ala-Gly-Leu-Leu-Cys (SEQ ID NO:32). Nature of the series: peptide cleavage kinetics by HPLC, 10 nM activated MMP; the filing calls Km 'affinity or binding strength'.
For series [6], the system named is Lys*-Gly-Leu-Cys (SEQ ID NO:33). The series is described as above.
Series [7] concerns Lys*-Pro-Ala-Gly-Leu-Leu-Gly-Cys (SEQ ID NO:2). The series is described as above.

matrix metalloprotease-9 (MMP-9), activated, sequence (chain, as listed by the source): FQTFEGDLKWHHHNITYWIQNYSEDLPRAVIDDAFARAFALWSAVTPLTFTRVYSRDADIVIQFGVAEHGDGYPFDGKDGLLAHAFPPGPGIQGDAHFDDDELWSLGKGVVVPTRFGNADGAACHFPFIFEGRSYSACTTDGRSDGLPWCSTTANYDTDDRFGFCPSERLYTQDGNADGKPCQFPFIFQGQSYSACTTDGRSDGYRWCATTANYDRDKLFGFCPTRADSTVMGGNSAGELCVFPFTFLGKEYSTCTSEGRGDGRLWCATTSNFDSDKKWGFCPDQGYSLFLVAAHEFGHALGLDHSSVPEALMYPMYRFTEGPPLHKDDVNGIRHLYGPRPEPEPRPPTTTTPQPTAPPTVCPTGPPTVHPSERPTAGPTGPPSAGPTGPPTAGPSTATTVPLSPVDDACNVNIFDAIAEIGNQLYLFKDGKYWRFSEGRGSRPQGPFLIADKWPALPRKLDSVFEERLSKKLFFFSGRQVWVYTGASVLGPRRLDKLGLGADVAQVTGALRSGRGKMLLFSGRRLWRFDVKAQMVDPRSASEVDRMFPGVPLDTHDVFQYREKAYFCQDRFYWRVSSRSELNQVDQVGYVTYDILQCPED

On to “matrix metalloprotease-9 (MMP-9), activated”, for which the Kcat/Km in series [1] turned out to be 252 M⁻¹ s⁻¹; in series [2], 358 M⁻¹ s⁻¹; in series [4] it was 24000 M⁻¹ s⁻¹. In addition, the Vmax in series [1] is 9.9e-10 M/s; in series [2], 5.3e-09 M/s; in series [4] it was 2.4e-07 M/s. Further, the kcat in series [1] is 0.04 s⁻¹; in series [2], 0.21 s⁻¹; in series [4], 9.6 s⁻¹. Moreover, the “release of cleaved fragment from the PEG(8000)DA hydrogels” value in series [3] was “the addition of MMP-2 and MMP-9 showed a significantly higher release of cleaved fragment from the PEG(8000)DA hydrogels compared to the control”. Further, the Km in series [5] was 160 µM; in series [6], 600 µM; in series [7], 400 µM.

The Vmax is the rate approached at saturating substrate. As usually defined, the kcat is the maximal rate divided by the concentration of active sites. The term Km denotes the concentration of substrate that gives half-maximal velocity.
